The results in this text go back to publication doi:10.1101/2023.08.14.553235.

For this assay, the target named is GFP1–10 tagged with MCP, with nuclear localization sequences. Nature of the assay: P3 editing (protein-protein proximity sensor; genome editing read-out); HEK293T cells transfected with one of 12 designs of crRNA-MS2/BoxB-petracrRNA (upper 4-bp region of the repeat:anti-repeat duplex varied), PE4max and split-GFP or standard GFP (background); editing normalized to the eCTT control.

With “GFP11 tagged with LambdaN, with nuclear localization sequences (peptide)”, the normalized editing efficiency (GAUA:UAUC guide RNA design) turned out to be 3.8%.
